Positions count from the first letter of the chain named.
B1: mAb 182 (antibody, V domains shown)
VH: QVQLVQSGAGMKKPGASVRVSCKASGYNFIDYHIHWVRQAPGQGLEWMGWINPKSGRTMSAQKFQGRVTMTRDTSITAAYMELNRLRSDDSAIYYCARVTQLVFDHWGQGTLVTVSL
VL: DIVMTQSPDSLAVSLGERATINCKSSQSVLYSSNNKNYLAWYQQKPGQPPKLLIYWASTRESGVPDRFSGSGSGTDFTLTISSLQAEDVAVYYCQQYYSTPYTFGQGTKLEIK
notes: VH/VL only
B2: mAb 183 (antibody, V domains shown)
VH: QVQLVQSGAEVKKPGASVRVSCKSSGYTFTGYYIHWVRQAPGQGLEWMGWINPKSGRTSYAEKFQGSITMTRDTSINTAYMELTKLRSDDTAVYYCERMGELLLFDYWGQGTLVTVSS
VL: not shown
notes: VH/VL only
B3: mAb 184 (antibody, V domains shown)
VH: QVQLVESGGGVVQPGRSLRLSCAASGFTFSDYGMHWVRQAPGKGLEWVSVIWSDGLNKYYKDSVKGRFTISRDNSKNTLYLQMNSLRAADTAVYYCARLYSGSHYHYFMDVWGKGTSVTVSS
VL: DILLTQSPSFLSASVGDRVTITCRASQDISSSLAWYQQKPKKAPDLLIYTASTLQSGVPSRFSGRGSGTEFTLTISNLQPEDFATYYCQQLKNYPITFGQGTRLEIK
notes: VH/VL only
B4: mAb 185 (antibody, V domains shown)
VH: QVQLVQSGSEVKKPGASVRVSCKASGYIFTGYHIHWVRQAPGQGLEWMGWINPKSGRTSYAQNFQARVTMTRDTSINTIHMELSRLRSDDTAIYYCMRVGEQLLFDFWGQGTLVTVSS
VL: not shown
notes: VH/VL only
B5: mAb 187 (antibody, V domains shown)
VH: EVQLLESGGGLVQPGGSLRLSCAASGFTFSSYAMNWVRQAPGKGLEWVSAISSSGGRTYYADSVKGRFTISRDNSKNTLYLQMNSLRAEDTAVYYCAKDSTSHPYMDVWGKGTTVTVSS
VL: AIQMTQSPSSLSASVGDRVTITCRASQGIRNDLGWYQQQPGKAPKLLIYDASSLQSGVPSRFSGSGSGTVFTLTISSLQPEDFATYFCLQDYNYPFTFGPGTKVDIK
notes: VH/VL only
B6: mAb 253 (antibody, V domains shown)
VH: QVTLKESGPVLVKPTETLTLTCTVSGFSLSNARMGVSWIRQPPGKALEWLTLIFSIDEKSYSTSLKSRLTISQDTSKSQVVLTVTNMDPVDTVTYFCERIETGPYYYYYYMDVWGKGTTVTVSS
VL: not shown
notes: VH/VL only
B7: mAb 254 (antibody, V domains shown)
VH: B6 VH with A32S, I39L, T51I, L52F, V84M
VL: not shown
notes: VH/VL only
B8: mAb 268 (antibody, V domains shown)
VH: QVQLVQSGSEVKKPGASVKVSCKASGYTFTGYYIHWVRQAPGQGLEWMGWINPNSGRTNYAQNFQGRVTMTRDTSITTAHMELTRLTSDDTAVYYCARLELLVFDYWGQGTLVTVSS
VL: DIQMTQSPSSLSASVGDRVTITCRASQTIYNYLNWYQQKPGKAPQVLIYAASNLQSGVPSIFSGSGSGTDFTLTITNLQPEDFATYYCQQTYSIPFTFGGGTKVEIK
notes: VH/VL only
B9: mAb 269 (antibody, V domains shown)
VH: B8 VH
VL: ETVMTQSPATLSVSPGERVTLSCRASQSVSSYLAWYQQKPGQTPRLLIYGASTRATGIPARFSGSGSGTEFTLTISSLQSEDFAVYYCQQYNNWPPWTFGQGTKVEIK
notes: VH/VL only
B10: mAb 274 (antibody, V domains shown)
VH: QVQLVQSGAEVKKPGASVRVSCKASGYTFTGYYMHWVRQAPGQGLEWMGWIYPNSGRTNYAQKFQGRVTMTRDTSISTAYMELTRLISDDTAVYYCARLWDLYFDYWGQGTLVTVSS
VL: DIQLTQSPSFLSASVGDRVTITCRASQGISSYLAWYQQKPGKAPKLLIYAASTLQSGVPSRFSGSGSGTEFTLTISSLQPEDFATYYCQQLNSYPWTFGQGTKVEIK
notes: VH/VL only
B11: mAb 275 (antibody, V domains shown)
VH: QVQLVQSGSELKKPGASVKVSCKASGYTFTKYAMNWVRQAPGQGLEWMGWINTNTGNPTYAQGFTGRFVFSLDASVTTAYLQISSLKAEDTAVYYCAREGHYDFWGGFYYFDYWGQGTLVTVSS
VL: EIMLTQSPATLSLSPGERGTLSCRASQSVSSYLAWYQQKPGQAPRLVIYDVSNRATGIPARFSGSGSGTDFILTIGSLEPEDFAVYYCQQRSNWPLTFGGGTKVEIK
notes: VH/VL only
B12: mAb 277 (antibody, V domains shown)
VH: QVQLVQSGAAMKKPGASVKVSCKASGSTFTGYYLHWVRQAPGQGLEWMGWIYLNSGRTKYAQKFQGRVTMTRDTSINTAHMELSRLTFDDTAVYYCVRVLELIFDYWGQGTLVTVSS
VL: B10 VL
notes: VH/VL only
B13: mAb 278 (antibody, V domains shown)
VH: B12 VH with N77S, V97A
VL: not shown
B14: mAb 279 (antibody, V domains shown)
VH: B10 VH with R19K
VL: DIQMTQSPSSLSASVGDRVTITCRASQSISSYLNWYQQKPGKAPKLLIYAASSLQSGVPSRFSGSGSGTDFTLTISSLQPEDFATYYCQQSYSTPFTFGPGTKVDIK
notes: VH/VL only
B15: mAb 280 (antibody, V domains shown)
VH: B10 VH
VL: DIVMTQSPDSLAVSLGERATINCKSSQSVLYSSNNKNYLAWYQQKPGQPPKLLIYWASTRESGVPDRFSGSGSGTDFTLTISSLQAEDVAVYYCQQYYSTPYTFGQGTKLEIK
notes: VH/VL only
B16: mAb 281 (antibody, V domains shown)
VH: B10 VH
VL: DIVMTQSPLSLPVTPGEPASISCRSSQSLLHYNGNNYLDWYLQKPGQSPHLLIYLGSNRASGVPDRFSGSGSGTDFTLKIIRVEAEDVGIYYCMQGLQSPYTFGQGTKLEIK
notes: VH/VL only

biological target: T1, cynomolgus monkey CD3 expressed on cyno primary T cells (cynomolgus monkey, UniProt Q95LI5 22-198; Q95LI8 22-171; Q95LI7 23-181); assay: flow cytometry, cyno primary T cells
T1 construct: whole, on cells; CD3 complex on purified cynomolgus monkey CD3 pan T cells; also called cyno CD3
Procedure, shortened: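 Values are fold over isotype: median fluorescence intensity of each antibody relative to isotype control after a 30-minute, 4° C incubation at 25 nM with CD3-bearing cells in PBS containing 2% FBS.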

T1 sequence (Q95LI5 22-198, chain 1 of 3): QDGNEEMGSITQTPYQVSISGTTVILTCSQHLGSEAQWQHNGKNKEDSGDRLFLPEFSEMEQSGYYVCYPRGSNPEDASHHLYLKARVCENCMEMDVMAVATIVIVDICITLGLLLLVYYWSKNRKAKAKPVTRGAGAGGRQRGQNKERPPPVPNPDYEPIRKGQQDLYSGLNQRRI
T1 sequence (Q95LI8 22-171, chain 2 of 3): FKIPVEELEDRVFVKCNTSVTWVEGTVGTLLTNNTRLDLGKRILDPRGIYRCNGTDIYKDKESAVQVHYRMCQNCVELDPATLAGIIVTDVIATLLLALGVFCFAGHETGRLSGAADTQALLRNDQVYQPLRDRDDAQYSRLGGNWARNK
T1 sequence (Q95LI7 23-181, chain 3 of 3): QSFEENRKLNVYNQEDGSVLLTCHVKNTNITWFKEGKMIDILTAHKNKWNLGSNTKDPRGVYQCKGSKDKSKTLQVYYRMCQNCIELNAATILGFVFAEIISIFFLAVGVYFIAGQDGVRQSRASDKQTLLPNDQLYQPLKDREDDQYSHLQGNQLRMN

Row | Binder | binding result
1 | B1 | no binding (tested: FOI <10 (FOI >=10 = positive); 25 nM)
2 | B2 | no binding (tested: FOI <10 (FOI >=10 = positive); 25 nM)
3 | B3 | no binding (tested: FOI <10 (FOI >=10 = positive); 25 nM)
4 | B4 | no binding (tested: FOI <10 (FOI >=10 = positive); 25 nM)
5 | B5 | no binding (tested: FOI <10 (FOI >=10 = positive); 25 nM)
6 | B6 | no binding (tested: FOI <10 (FOI >=10 = positive); 25 nM)
7 | B7 | no binding (tested: FOI <10 (FOI >=10 = positive); 25 nM)
8 | B8 | no binding (tested: FOI <10 (FOI >=10 = positive); 25 nM)
9 | B9 | no binding (tested: FOI <10 (FOI >=10 = positive); 25 nM)
10 | B10 | no binding (tested: FOI <10 (FOI >=10 = positive); 25 nM)
11 | B11 | no binding (tested: FOI <10 (FOI >=10 = positive); 25 nM)
12 | B12 | no binding (tested: FOI <10 (FOI >=10 = positive); 25 nM)
13 | B13 | no binding (tested: FOI <10 (FOI >=10 = positive); 25 nM)
14 | B14 | no binding (tested: FOI <10 (FOI >=10 = positive); 25 nM)
15 | B15 | no binding (tested: FOI <10 (FOI >=10 = positive); 25 nM)
16 | B16 | no binding (tested: FOI <10 (FOI >=10 = positive); 25 nM)

biological target: T2, human CD3 expressed on cells (Jurkat cells; human primary T cells) (human, UniProt P07766 23-207; P04234 22-171; P09693 23-182); assay: flow cytometry, Jurkat cells
T2 construct: whole, on cells
Description: Purified antibodies were confirmed to bind CD3 expressed on cells using the CytoFLEX S or LX flow cytometers (Beckman Coulter). Antibodies were diluted to 25 nM in FACS buffer (PBS+2% FBS) and were incubated with CD3-expressing cells for 30 minutes at 4° C. […] The median fluorescence intensity of the binding signal for each antibody was normalized to the isotype control to obtain a fold over isotype value. An antibody with a fold over isotype (FOI) of ≥10 was considered to be positive for binding.

T2 sequence (P07766 23-207, chain 1 of 3): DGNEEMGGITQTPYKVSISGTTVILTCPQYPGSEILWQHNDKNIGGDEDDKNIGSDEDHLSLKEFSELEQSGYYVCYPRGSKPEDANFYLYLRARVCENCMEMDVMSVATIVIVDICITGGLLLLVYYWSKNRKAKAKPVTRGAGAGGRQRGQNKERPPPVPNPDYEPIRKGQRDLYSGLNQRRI
T2 sequence (P04234 22-171, chain 2 of 3): as the sequence (Q95LI8 22-171, chain 2 of 3) above, with V5I, K15N, V20I, T32S, N33D, N34I, A64T, N74S, L83V, R141H counted along it
T2 sequence (P09693 23-182, chain 3 of 3): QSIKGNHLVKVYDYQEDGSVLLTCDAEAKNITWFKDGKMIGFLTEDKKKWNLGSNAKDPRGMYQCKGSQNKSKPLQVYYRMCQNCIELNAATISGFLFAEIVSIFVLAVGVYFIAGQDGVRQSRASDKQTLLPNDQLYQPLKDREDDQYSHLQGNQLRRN

Row | Binder | binding result
17 | B1 | no binding (tested: FOI <10 (FOI >=10 = positive); 25 nM)
18 | B2 | no binding (tested: FOI <10 (FOI >=10 = positive); 25 nM)
19 | B3 | no binding (tested: FOI <10 (FOI >=10 = positive); 25 nM)
20 | B4 | no binding (tested: FOI <10 (FOI >=10 = positive); 25 nM)
21 | B5 | no binding (tested: FOI <10 (FOI >=10 = positive); 25 nM)
22 | B6 | no binding (tested: FOI <10 (FOI >=10 = positive); 25 nM)
23 | B7 | no binding (tested: FOI <10 (FOI >=10 = positive); 25 nM)
24 | B8 | no binding (tested: FOI <10 (FOI >=10 = positive); 25 nM)
25 | B9 | no binding (tested: FOI <10 (FOI >=10 = positive); 25 nM)
26 | B10 | no binding (tested: FOI <10 (FOI >=10 = positive); 25 nM)
27 | B11 | no binding (tested: FOI <10 (FOI >=10 = positive); 25 nM)
28 | B12 | no binding (tested: FOI <10 (FOI >=10 = positive); 25 nM)
29 | B13 | no binding (tested: FOI <10 (FOI >=10 = positive); 25 nM)
30 | B14 | no binding (tested: FOI <10 (FOI >=10 = positive); 25 nM)
31 | B15 | no binding (tested: FOI <10 (FOI >=10 = positive); 25 nM)
32 | B16 | no binding (tested: FOI <10 (FOI >=10 = positive); 25 nM)
